These are literature values, as cited in paper PMC6002756.

Usually Kd stands for the free concentration of one partner at which half of the binding sites on the other are occupied at equilibrium, for simple one-to-one binding.

For one series, the target named is E-cadherin (X-dimer) ECD (UniProt P12830).
The target of another series is E-cadherin ECD (UniProt P12830).

Chain of E-cadherin ECD (P12830 155-709): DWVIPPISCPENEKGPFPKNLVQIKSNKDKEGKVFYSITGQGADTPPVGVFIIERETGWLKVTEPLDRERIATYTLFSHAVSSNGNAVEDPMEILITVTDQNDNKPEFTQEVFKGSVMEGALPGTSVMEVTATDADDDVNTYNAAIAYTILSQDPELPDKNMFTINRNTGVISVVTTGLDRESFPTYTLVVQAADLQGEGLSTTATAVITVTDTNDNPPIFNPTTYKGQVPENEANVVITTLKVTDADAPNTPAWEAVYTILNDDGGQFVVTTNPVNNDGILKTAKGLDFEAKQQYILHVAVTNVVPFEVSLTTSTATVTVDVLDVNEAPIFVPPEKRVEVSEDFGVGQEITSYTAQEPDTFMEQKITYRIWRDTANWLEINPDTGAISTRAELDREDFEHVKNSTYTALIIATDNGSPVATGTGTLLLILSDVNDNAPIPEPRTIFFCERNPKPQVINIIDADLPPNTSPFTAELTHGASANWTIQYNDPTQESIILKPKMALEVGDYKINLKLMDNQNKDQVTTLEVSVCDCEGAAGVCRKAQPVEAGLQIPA
Chain of E-cadherin (X-dimer) ECD (P12830 155-709): as above

With “E-cadherin (X-dimer) ECD (from UniProt P12830)”, in the series with E-cadherin (X-dimer) ECD, the Kd is 900 µM.

Turning to E-cadherin ECD (from UniProt P12830), in the series with E-cadherin ECD, the dissociation constant Kd is 100 µM.
